Measurements published in publication PMC10491584, “Structural convergence endows nuclear transport receptor Kap114p with a transcriptional repressor function toward TATA-binding protein” (Nature Communications, 2023).
Where “and” joins values, the source holds several entries; their conditions need not be identical. Equal values may be shown once.

Legend:
Kap114p = molecular target: T1, Kap114p (S. cerevisiae, UniProt P53067 1-1004); experiment: ITC; Kap114p (wild type or mutant) 50 uM in the sample cell, partner 500 uM in the syringe; 25 °C; 20 mM HEPES pH 7.4, 150 mM NaCl; triplicate; conditions: both partners purified
T1 construct: Kap114p, S. cerevisiae, full length, amplified from total genomic DNA; also called wild type Kap114p; source: E. coli (Rosetta strain), purified (GST resin, MonoQ, Superdex 200)
T1 sequence (looked up): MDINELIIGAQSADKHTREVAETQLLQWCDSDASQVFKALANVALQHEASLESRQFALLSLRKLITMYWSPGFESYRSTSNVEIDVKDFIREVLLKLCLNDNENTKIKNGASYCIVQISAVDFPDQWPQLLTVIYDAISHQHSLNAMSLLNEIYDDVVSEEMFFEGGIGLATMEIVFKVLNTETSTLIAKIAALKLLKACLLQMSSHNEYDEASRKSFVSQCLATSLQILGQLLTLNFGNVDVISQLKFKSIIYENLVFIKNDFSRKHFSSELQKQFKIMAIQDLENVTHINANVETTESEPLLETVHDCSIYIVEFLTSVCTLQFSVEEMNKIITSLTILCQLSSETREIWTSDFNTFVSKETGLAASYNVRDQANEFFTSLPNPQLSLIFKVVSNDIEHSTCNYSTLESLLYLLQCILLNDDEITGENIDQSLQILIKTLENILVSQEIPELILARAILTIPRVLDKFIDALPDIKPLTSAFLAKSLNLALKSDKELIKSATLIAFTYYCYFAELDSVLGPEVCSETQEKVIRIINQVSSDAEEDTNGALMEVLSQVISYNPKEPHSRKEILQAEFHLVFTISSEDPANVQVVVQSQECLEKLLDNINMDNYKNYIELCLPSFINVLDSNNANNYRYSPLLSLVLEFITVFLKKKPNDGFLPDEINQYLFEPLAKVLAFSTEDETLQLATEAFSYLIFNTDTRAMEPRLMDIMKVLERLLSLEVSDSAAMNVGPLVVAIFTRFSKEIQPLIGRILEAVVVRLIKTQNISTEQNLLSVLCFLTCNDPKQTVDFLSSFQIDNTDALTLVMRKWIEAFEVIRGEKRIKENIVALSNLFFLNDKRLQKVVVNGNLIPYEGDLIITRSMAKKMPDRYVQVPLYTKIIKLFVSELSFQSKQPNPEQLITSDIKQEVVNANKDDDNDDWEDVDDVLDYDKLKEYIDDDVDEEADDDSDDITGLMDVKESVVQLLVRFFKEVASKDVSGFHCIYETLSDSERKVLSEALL

Kap114pΔY939 = molecular target: T2, Kap114pΔY939 (S. cerevisiae, UniProt P53067 1-1004, ΔY939); experiment: as above; conditions: both partners purified
T2 construct: Kap114p, S. cerevisiae, full length with residue Y939 deleted; also called Kap114p(DY939); source: E. coli (Rosetta strain), purified (GST resin, MonoQ, Superdex 200)
T2 sequence (looked up): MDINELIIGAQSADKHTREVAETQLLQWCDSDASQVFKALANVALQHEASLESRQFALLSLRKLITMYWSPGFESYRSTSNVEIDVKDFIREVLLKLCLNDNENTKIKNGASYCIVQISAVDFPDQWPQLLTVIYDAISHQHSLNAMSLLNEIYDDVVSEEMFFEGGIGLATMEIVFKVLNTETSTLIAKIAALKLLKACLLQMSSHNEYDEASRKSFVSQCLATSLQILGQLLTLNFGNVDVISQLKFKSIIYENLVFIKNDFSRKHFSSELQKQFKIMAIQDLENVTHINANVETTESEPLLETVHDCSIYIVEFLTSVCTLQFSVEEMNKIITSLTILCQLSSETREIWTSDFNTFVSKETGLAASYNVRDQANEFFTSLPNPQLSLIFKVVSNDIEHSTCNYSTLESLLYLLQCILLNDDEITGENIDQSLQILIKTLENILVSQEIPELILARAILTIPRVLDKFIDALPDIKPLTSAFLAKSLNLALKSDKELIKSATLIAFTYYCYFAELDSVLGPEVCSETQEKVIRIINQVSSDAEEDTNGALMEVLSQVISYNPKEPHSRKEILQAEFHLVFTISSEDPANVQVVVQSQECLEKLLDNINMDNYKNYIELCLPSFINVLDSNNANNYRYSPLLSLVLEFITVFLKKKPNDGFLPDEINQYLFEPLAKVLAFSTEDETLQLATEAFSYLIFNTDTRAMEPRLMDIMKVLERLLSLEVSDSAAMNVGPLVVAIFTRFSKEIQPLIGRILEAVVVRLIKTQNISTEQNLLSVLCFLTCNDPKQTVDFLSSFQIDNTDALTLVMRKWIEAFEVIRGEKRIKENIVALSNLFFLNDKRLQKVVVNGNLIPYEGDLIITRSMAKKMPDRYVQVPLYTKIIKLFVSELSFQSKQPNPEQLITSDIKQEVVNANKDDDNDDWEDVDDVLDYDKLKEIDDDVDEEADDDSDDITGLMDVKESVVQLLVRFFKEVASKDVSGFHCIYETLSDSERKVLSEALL

Ka (Kap114p): 9.85e+08 M⁻¹ and 6.92e+08 M⁻¹ and 9.37e+08 M⁻¹
Kd (Kap114pΔY939): 37.1 nM
B1: core domain of yTBP (a.a. 61-240) (domain or fragment, S. cerevisiae, UniProt P13393 61-240, looked up)
chain: SGIVPTLQNIVATVTLGCRLDLKTVALHARNAEYNPKRFAAVIMRIREPKTTALIFASGKMVVTGAKSEDDSKLASRKYARIIQKIGFAAKFTDFKIQNIVGSCDVKFPIRLEGLAFSHGTFSSYEPELFPGLIYRMVKPKIVLLIFVSGKIVLTGAKQREEIYQAFEAIYPVLSEFRKM
notes: 61-240; also called yTBP^C; yTBPc; source: E. coli (Rosetta strain), purified (Ni-NTA, HiTrap SP, Superdex 75); not shown: 6xHis, N-terminal, cleaved
